According to the nanobody polyreactivity screen of Harvey et al. (2022):

test: yeast display, Sf9 membrane polyspecificity reagent, FACS + sequencing; frameworks hold sequencing errors
Outline: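 A synthetic nanobody library was expressed on Saccharomyces cerevisiae BJ5465 by galactose induction for 36–48 hours. The library was stained for 1 hour at 4 °C with 10% biotinylated, detergent-solubilized Sf9 membrane reagent and enriched with streptavidin microbeads before FACS. Low and high (top ~1%) gates were set on anti-HA fluorescence for expression and streptavidin fluorescence for reagent binding, and each polyreactivity label reflects the gate of origin.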

| Sequence | polyreactivity (PSR sort gate) |
| --- | --- |
| QVQLVESGGGLVQAGGSLRLSCAASGSIFSHNVMVWYRQAPGKERELVAAISGGGGRTYYADSVKGRFTISRDNAKNTVYLQMNSLKAEDTAVYYCNAYVGLSEGDYWGQGTQVSVSS | high polyreactivity |
| QVQLVESGGGLVQAGGSLRLSCAASGSIFSIYAMGWYRQAPGKERDFVASITVTDGSTYYADSVKGRFTISRDNAKNTVYLQMNSLKPEDTAVYYCYADGWYALYEWLAVSGYYWGQGTQVTVSS | low polyreactivity |
| QVQLVESGGGLVQAGGSLRLSCAASGSIFSIYAMGWYRQAPGKERELVAAISWSGGSTYYADSVKGRFTISRDTAKITVYLQMNSLKPEDTAVYYCAAEYEYMWSQYLTEYGYDYWGQGTQVTVSS | low polyreactivity |
| QVQLVESGGGLVQAGGSLRLSCAASGSIFSKNAMGWYRQAPGKERELVAAISSSGGITYYADSVKVRFTISRDNANNTVYLQMNSLKPEDTAFYYCATLGGAIRQAFEYWGQGTQVNVSS | low polyreactivity |
| QVQLVESGGGLVQAGGSLRLSCAASGSIFSKYAMGRYRPAPGKERELVAAISRRGGDTYYADSVKGRFTISRDNAKNTVYLQMNSLKPEDTAVYYCAAYQYYLYDYWGQGTQVTVSS | high polyreactivity |
| QVQLVESGGGLVQAGGSLRLSCAASGSIFSKYAMGWYRPAPGKERELVAAIASSGGSTYYADSVKGRFTISRDNAKNTVYFQMNSLKPEDTAVYYCAAGGRSVRYNYWGQGTQVTVSS | high polyreactivity |
| QVQLVESGGGLVQAGGSLRLSCAASGSIFSKYAMGWYRQAPGKERELVAAITFRSGSTYYADSVKGRFTISRDNAKNTVYLQMNSLKPEDTAVYYCAADEYYQVSAYDYWGQGTQVTVSS | low polyreactivity |
| QVQLVESGGGLVQAGGSLRLSCAASGSIFSKYAMGWYRQAPVKERELVAAIDWSGGSTYYADSVKGRFTISRDNAKNTVYLQMNSLKPEDTAVYYCNAEYVVADYGYYTIEFDYWGQGTQVTVSS | low polyreactivity |
| QVQLVESGGGLVQAGGSLRLSCAASGSIFSKYTMGWYRQAPGKERELVAAISRAGSTYYADSVKGRFTISRDNAKNTVYLQMNSLKPEDTAVYYCAAEWSDSVYYSYEYWGQGTQVTVSS | high polyreactivity |
| QVQLVESGGGLVQAGGSLRLSCAASGSIFSKYVMGWYRQAPGKQTELVAAISWSGTRTYYADSVKGRFTISRDNAKNTVYLQMNSLKPEDTAVYYCAALRLYAGHQYDYWGQGTQVTVSS | high polyreactivity |
| QVQLVESGGGLVQAGGSLRLSCAASGSIFSLYAMGWYRQAPGKERELVATISKSGGSTYYADSVKGRFTISRDNAKNTVYLQMNSLKPEDTAVYYCAARLTYTGGQGAYDYWGQGTQVTVSS | high polyreactivity |
| QVQLVESGGGLVQAGGSLRLSCAASGSIFSLYTMGWYRQAPGKERELVARITTSGGTTRYADSVKGRFTISRDTSKNTVYLQMISLKPEDTAVYYCAADRSPFWRGYVRYNYWGQGTQVTVSS | high polyreactivity |
| QVQLVESGGGLVQAGGSLRLSCAASGSIFSLYTMGWYRQAPGKERELVATIRSVGSTNYADSVKGRFTISRDNAKNTVYLQMNSLKPEDTAVYYCAAGWYYGVYYIYDYWGQGTQVNVSS | high polyreactivity |
| QVQLVESGGGLVQAGGSLRLSCAASGSIFSNNAMGWYRPAPGKERELVAAITRSGGNTYYADSVKGRFTISRDNAKNTVYLQMNSLKPEDTAVYYCAASNSHVGPNDYWGQGTQVTVSS | high polyreactivity |
| QVQLVESGGGLVQAGGSLRLSCAASGSIFSNYDMGWYRQAPGKERELVAGITRSGTNTYYADSVKGRFTISRDNAKNTVYLKMNRLKPEDTAVYYCAAAIRPGMDYWGQGTQVTVSS | high polyreactivity |
| QVQLVESGGGLVQAGGSLRLSCAASGSIFSPNDMGWYRPAHGKERELVAAITSAGSTFYADSVKGRFTISRDNAKNTVYIQMNSLKPEDTAVDYCSATYISVTDYAYFPLWYGYWGQGTQVTVSS | low polyreactivity |

| Sequence | polyreactivity (PSR sort gate) |
| --- | --- |
| QVQLVESGGGLVQAGGSLRLSCAASGSIFSPYAMGWYRQAPGKERELVAAISFRASTTYYADSVKGRFTISRDNAKNTVYLQMNSLKPEYTAVYYCAKKRPGFLRYGSIGEFQYDYWGQGTQVTVSS | low polyreactivity |
| QVQLVESGGGLVQAGGSLRLSCAASGSIFSQYAMGWYRQAPGKERELVAAITYGGGSTYYADSVKGRFTISRDNAKNTVYLQMNCLKAEDTALYYCAKEFKYWGYPYDYWGQGTQVTVSS | low polyreactivity |
| QVQLVESGGGLVQAGGSLRLSCAASGSIFSRNAMGWYRPAPGKERELVAAITSSGGRTYYADSVKGRFTISRDNAKNTVYLQMNSLKPEDTAVYYCAARARGGDWGSGDYWGQGTQVTVSS | high polyreactivity |
| QVQLVESGGGLVQAGGSLRLSCAASGSIFSRNAMGWYRQAPGKERELVAAISYSGGTTYYADSVKGRFTISRDYAKNTVYLQMNSLKPEDTAVYYCNKRYWVRTGKVSSYDYWGQGTQVSVSS | high polyreactivity |
| QVQLVESGGGLVQAGGSLRLSCAASGSIFSRNAMGWYRQAPGKERELVAAISYSSGSTYYADSVKGRFTISRDHAKNTVYLQMNSLTPEDTAVYYCAADTTKLQGVEGDYWGQGTQVTVSS | low polyreactivity |
| QVQLVESGGGLVQAGGSLRLSCAASGSIFSRNAMGWYRQAPGKERELVAAITRSGGRTYYADSVKGRFTISRDNAKNTVYLQMNSLKPEDTAVYYCNALASQEYDYWGQGTQVTVSS | high polyreactivity |
| QVQLVESGGGLVQAGGSLRLSCAASGSIFSRNAMGWYRQAPGKVRELVAAITGSGSSTYYADSVKGRFTISRDNAKNTVYLQMNSLKPEDTAVYYCAKGSWWGYYSYGFDYWGQGTQVTVSS | high polyreactivity |
| QVQLVESGGGLVQAGGSLRLSCAASGSIFSRNDMGWYRQAPGKERELVAAITSDDTSTYYADSVNGRFTISRDNAKNTVYLQMNSLKPEDTAVYYCAADYGNPFDYWGQGTQVTVSS | low polyreactivity |
| QVQLVESGGGLVQAGGSLRLSCAASGSIFSRNTMGWYRQAPGKERELVAGISSSGSRTYYADSVKGRFTISRDNAKYTVYLQMNSLKPEDTAVYYCAAEHQRSRGRRYYIGYDYWGQGTQVTVSS | low polyreactivity |
| QVQLVESGGGLVQAGGSLRLSCAASGSIFSRNTMGWYRQAPGKERELVATITSGSNTNYADSVKGRFTISRDNAKNTVYLQMNSLKPEDTAVYYWGQGTQVTVSS | low polyreactivity |
| QVQLVESGGGLVQAGGSLRLSCAASGSIFSRYAMGWSRQAPGKERELVAAISKSGGTTYYADSVKGRFTISRDNAKNTVYLQMNSLKPEDTAVYYCNAKRYRNGSIGMGYWGQGSQVTVSS | high polyreactivity |
| QVQLVESGGGLVQAGGSLRLSCAASGSIFSRYAMGWYRQAPGKERELVAAISRRRGTTYYADSVKGRFTISRDNAKNTVYLHMNSLKTEDTAVYYCAAVFVTQSFIYDYYYWGQGTQVTVSS | high polyreactivity |
| QVQLVESGGGLVQAGGSLRLSCAASGSIFSRYAMGWYRQAPGKERELVAAISTIGGSTYYADSVKGRFTISRDNAKNTVYLQMNSLIPEDTAVYYCNARQTAALTPRYGYWGQGTQVTVSS | high polyreactivity |
| QVQLVESGGGLVQAGGSLRLSCAASGSIFSRYTMGWYRQAPGKERELVAAISGSTTRTYYADSVKGRFTISRDNAKNTVYLQMNSLKPEDTAVYYCAATRGRGGRDDYWGQGTQVTVSS | high polyreactivity |
| QVQLVESGGGLVQAGGSLRLSCAASGSIFSSNAMGWYIQAPGKERELVAAITSGGSTTYADSVKGRFTISRDNAKNTVNLQMNSLKPEDTAVYYCAADPVYRYYHGWTYLDYDYWGQGTQVTVSS | low polyreactivity |
| QVQLVESGGGLVQAGGSLRLSCAASGSIFSSNAMGWYRPAPGKERELVAAITSGGSTTYADSVKGRFTISRDNAKNTVYLQMNSLKPEDTAVYYCAADPVYRYYHGWTYLDYDYWGQGTQVTVSS | low polyreactivity |
